Reference: patent US20250011363A1, “OPTIMIZED SHORTENED PEPTIDE THAT BINDS TO ACETYLCHOLINE RECEPTOR, AND USE THEREOF” (SKINMED CO., LTD., priority 2021, published 2025)

These binders were tested against acetylcholine receptor (assay: SPR, AchR on CM5 chip, peptide 10 µM).

Binding affinity (RU) | Binder
31 | RRKAER [6mer-1-1132]

What follows are binders tested against acetylcholine receptor (assay: SPR, receptor immobilised on chip, peptide at 10 µM).

Binding affinity [RU] | Binder
151 | KGFRKK [6mer-2-528]
145 | RGQTRR [6mer-2-527]
145 | KWVRKK [6mer-2-525]
148 | KVIYKR [6mer-2-531]
142 | KRLLKR [6mer-2-533]
124 | KQQRKR [6mer-2-529]
147 | KSITKR [6mer-2-532]
144 | RVLLRK [6mer-2-526]
128 | RGIQKR [6mer-2-524]
139 | RSYSKR [6mer-2-530]
139 | RVQLRR [6mer-2-534]

These binders were tested against acetylcholine receptor (assay: SPR, acetylcholine receptor on CM5 chip, peptide at 10 uM).

Binding affinity (RU) | Binder
148 | RKVYRK [6mer-1-593]
139 | RRVILK [6mer-1-535]
142 | RKGVTK [6mer-1-590]
151 | RRWFRK [6mer-1-536]
153 | RKRQRR [6mer-1-576]
139 | RKGQYK [6mer-1-578]
139 | KRSITK [6mer-1-564]
148 | RRLICR [6mer-1-550]
148 | RKVQQR [6mer-1-547]
139 | KRGLYK [6mer-1-581]
126 | KRVLLR [6mer-1-573]
149 | KRVICR [6mer-1-544]
142 | RKWLSK [6mer-1-598]
148 | KRWVRR [6mer-1-575]
127 | RKQVSK [6mer-1-584]
121 | KRQLQR [6mer-1-594]
131 | RKVYLK [6mer-1-561]
139 | RRSFTR [6mer-1-563]
124 | KKLYQR [6mer-1-599]
127 | RRSYRK [6mer-1-545]
144 | RKSRQK [6mer-1-585]
145 | KKGFTK [6mer-1-556]

Binding affinity (RU) | Binder
147 | KKRLYR [6mer-1-591]
135 | RRWLSK [6mer-1-592]
148 | RRVITK [6mer-1-569]
139 | RRLIQR [6mer-1-558]
128 | KRVQTR [6mer-1-540]
122 | RKRLRK [6mer-1-570]
137 | KRWFLK [6mer-1-582]
148 | KRSYQR [6mer-1-562]
139 | KKLQQK [6mer-1-589]
154 | RKLLCK [6mer-1-571]
142 | KKSYQR [6mer-1-549]
148 | KRSVRK [6mer-1-579]
148 | KKQLLK [6mer-1-587]
145 | RRSVCK [6mer-1-543]
136 | KKRVSR [6mer-1-567]
131 | KRSVTR [6mer-1-554]
148 | KRGFYK [6mer-1-597]
136 | KRVICK [6mer-1-586]
121 | KKSLQK [6mer-1-580]
123 | RRVYSR [6mer-1-548]
144 | RKRYRK [6mer-1-552]
136 | RKWFTR [6mer-1-541]

Binding affinity (RU) | Binder
127 | RRSFSK [6mer-1-560]
126 | KRVLLK [6mer-1-572]
128 | KRQVQK [6mer-1-557]
123 | RKLVQR [6mer-1-546]
153 | RRLVRK [6mer-1-588]
147 | KRWQQK [6mer-1-568]
121 | KKSLCK [6mer-1-595]
139 | RRRLTK [6mer-1-559]
128 | KKWYLK [6mer-1-555]
148 | RKGVLR [6mer-1-596]
142 | RRSQCK [6mer-1-538]
154 | RRGLCK [6mer-1-537]
128 | RRGVRK [6mer-1-553]
148 | KRGIRK [6mer-1-539]
139 | KRGYCR [6mer-1-600]
148 | KKSFCR [6mer-1-566]
128 | KKQYQR [6mer-1-577]
142 | KRGRLR [6mer-1-551]
151 | KRSIRR [6mer-1-565]
128 | KRWFRR [6mer-1-542]
139 | KKVLYK [6mer-1-583]
148 | RKSYLR [6mer-1-574]
